Measurements: US20240002497A1 (Merck Sharp & Dohme, published 2024)
Substitutions are numbered along the chain they refer to. Names and notes keep the numbering of the source.

B1: F010301840 (VHH)
VHH: EVQLVESGGGVVQPGGSLRLSCAASGPVFNINRMAWYRQAPGKQRELVAYVTPTGDISYTDSVKGRFTISRDGSKRTWSLQMNSLRPEDTALYYCRALLQPDSYSNTRTYWGQGTLVTVSS
notes: also called F0103387G04(R76_V78insT)(L11V, A12V, K33R, R39Q, S50Y, S56D, T83R, V89L, N93R)
B2: F010302326 (VHH)
VHH: EVQLVESGGGVVQPGGSLRLSCAASGPVFNINRMAWYRQAPGKQRELVAYVTPTGDISYADSVKGRFTISRDGSKRVYLQMNSLRPEDTALYYCRALLQPRSYSNTRTYWGQGTLVTVSS
notes: also called F0103387G04(L11V, A12V, K33R, R39Q, S50Y, S56D, T60A, W78V, S79Y, T83R, V89L, N93R, D99R)
B3: F010301865 (VHH)
VHH: B2 VHH with R101D, S120A
notes: also called F0103387G04(L11V, A12V, K33R, R39Q, S50Y, S56D, T60A, W78V, S79Y, T83R, V89L, N93R)
B4: F010302372 (VHH)
VHH: B2 VHH with G73R, R101D, S102V, N105I
notes: also called F0103387G04(L11V, A12V, K33R, R39Q, S50Y, S56D, T60A, G73R, W78V, S79Y, T83R, V89L, N93R, S100V, N100cI)
B5: F010302329 (VHH)
VHH: B2 VHH with R101D, S102R
notes: also called F0103387G04(L11V, A12V, K33R, R39Q, S50Y, S56D, T60A, W78V, S79Y, T83R, V89L, N93R, S100R)
B6: F010302327 (VHH)
VHH: B2 VHH with G73A
notes: also called F0103387G04(L11V, A12V, K33R, R39Q, S50Y, S56D, T60A, G73A, W78V, S79Y, T83R, V89L, N93R, D99R)
B7: F010302371 (VHH)
VHH: B2 VHH with G73R, R101N, S102V, N105I
notes: also called F0103387G04(L11V, A12V, K33R, R39Q, S50Y, S56D, T60A, G73R, W78V, S79Y, T83R, V89L, N93R, D99N, S100V, N100cI)
B8: F010302331 (VHH)
VHH: B2 VHH with G73R, R101D, S102R
notes: also called F0103387G04(L11V, A12V, K33R, R39Q, S50Y, S56D, T60A, G73R, W78V, S79Y, T83R, V89L, N93R, S100R)
B9: F010302385 (VHH)
VHH: B2 VHH with D72Q, R101S, N105G
notes: also called F0103387G04(L11V, A12V, K33R, R39Q, S50Y, S56D, T60A, D72Q, W78V, S79Y, T83R, V89L, N93R, D99S, N100cG)
B10: F010302330 (VHH)
VHH: B2 VHH with G73A, R101D, S102R
notes: also called F0103387G04(L11V, A12V, K33R, R39Q, S50Y, S56D, T60A, G73A, W78V, S79Y, T83R, V89L, N93R, S100R)
B11: F010302384 (VHH)
VHH: B2 VHH with D72G, R101S, N105I
notes: also called F0103387G04(L11V, A12V, K33R, R39Q, S50Y, S56D, T60A, D72G, W78V, S79Y, T83R, V89L, N93R, D99S, N100cI)
B12: F010302386 (VHH)
VHH: B2 VHH with D72Q, R101S, N105I
notes: also called F0103387G04(L11V, A12V, K33R, R39Q, S50Y, S56D, T60A, D72Q, W78V, S79Y, T83R, V89L, N93R, D99S, N100cI)
B13: F010302370 (VHH)
VHH: B2 VHH with G73R, R101S, N105I
notes: also called F0103387G04(L11V, A12V, K33R, R39Q, S50Y, S56D, T60A, G73R, W78V, S79Y, T83R, V89L, N93R, D99S, N100cI)
B14: F010301567 (VHH)
VHH: EVQLVESGGGLVQAGGSLRLSCAASVRPYSTSAMGWFRQAPEKEREAVAGILWNGIVTYYADSVKGRFTISRDNAKNEVYLQMNKLKPEDTAVYYCALDRDYGGRSFSAYEYEYWGQGTLVTVSS
notes: F29Y vs F0103362B08 (Kabat)
B15: F010301580 (VHH)
VHH: B14 VHH with R27T, Y29F
notes: R27T vs F0103362B08 (Kabat)
B16: F010301578 (VHH)
VHH: B14 VHH with Y29F, S30G
notes: S30G vs F0103362B08 (Kabat)
B17: F010301585 (VHH)
VHH: B14 VHH with Y29F, V57P
notes: V56P vs F0103362B08 (Kabat)
B18: F010301574 (VHH)
VHH: B14 VHH with Y29F, G35A
notes: G35A vs F0103362B08 (Kabat)
B19: F010301591 (VHH)
VHH: B14 VHH with Y29F, G103K
notes: G99K vs F0103362B08 (Kabat)
B20: F010301584 (VHH)
VHH: B14 VHH with Y29F, W53T
notes: W52aT vs F0103362B08 (Kabat)
B21: F010301594 (VHH)
VHH: B14 VHH with Y29F, R105K
notes: R100aK vs F0103362B08 (Kabat)
B22: F010301568 (VHH)
VHH: B14 VHH with Y29F, G35T
notes: G35T vs F0103362B08 (Kabat)
B23: F010301593 (VHH)
VHH: B14 VHH with Y29F, R100K
notes: R96K vs F0103362B08 (Kabat)
B24: F010301589 (VHH)
VHH: B14 VHH with Y29F, I56P
notes: I55P vs F0103362B08 (Kabat)
B25: F010301592 (VHH)
VHH: B14 VHH with Y29F, R105S
notes: R100aS vs F0103362B08 (Kabat)
B26: F010301595 (VHH)
VHH: B14 VHH with Y29F, D101A
notes: D97A vs F0103362B08 (Kabat)
B27: F010301586 (VHH)
VHH: B14 VHH with Y29F, W53A
notes: W52aA vs F0103362B08 (Kabat)
B28: F010301579 (VHH)
VHH: B14 VHH with R27K, Y29F
notes: R27K vs F0103362B08 (Kabat)
B29: F010301055 (VHH)
VHH: EVQLVESGGGLVQPGGSLRLSCAASGMLFNANTQGWYRQAPGKQRELVAFIFWGGYVNYVDSVKGRFTISRDNAKRTMYLQMNSLKPEDSAIYYCSLSRYLGQGTLVTVSS
notes: vs F0103265A11: S53W, T57V
B30: F010301099 (VHH)
VHH: B29 VHH with W53S, Y56W, N58T
notes: vs F0103265A11: Y56W, T57V, N58T
B31: F010301111 (VHH)
VHH: B29 VHH with W53S, V60N, S96A
notes: vs F0103265A11: T57V, V60N, S93A
B32: F010301188 (VHH)
VHH: B29 VHH with A31R, W53S, V57T, V60N, L101Q
notes: vs F0103265A11: A31R, V60N, L103Q
B33: F010301113 (VHH)
VHH: B29 VHH with A31R, W53S, V57T, V60N, R99V, L101Q
notes: vs F0103265A11: A31R, V60N, R101V, L103Q
B34: F010301059 (VHH)
VHH: B29 VHH with W53S, V60N, S96A, L101Q
notes: vs F0103265A11: T57V, V60N, S93A, L103Q
B35: F010301139 (VHH)
VHH: B29 VHH with A31R, I51W, W53S, V60N, L101Q
notes: vs F0103265A11: A31R, I51W, T57V, V60N, L103Q
B36: F010301175 (VHH)
VHH: B29 VHH with A31R, W53S, V57T, N58T
notes: vs F0103265A11: A31R, N58T
B37: F010301232 (VHH)
VHH: B29 VHH with A31R, W53S, V57T, N58T, S96A, L101Q
notes: vs F0103265A11: A31R, N58T, S93A, L103Q
B38: F010301138 (VHH)
VHH: B29 VHH with N30Y, W53S, V57T, V60N, S96A, L101Q
notes: vs F0103265A11: N30Y, V60N, S93A, L103Q
B39: F010301126 (VHH)
VHH: B29 VHH with A31R, W53S, N58T, V60N
notes: vs F0103265A11: A31R, T57V, N58T, V60N

Target: T1, huNav1.7α + β1-β2-β3 (human Nav1.7α co-expressed with human Navβ1, Navβ2 and Navβ3 on cells) (human)
T1 construct: also called huNav1.7-beta1-beta2-beta3; CHO FlpIn huNav1.7α + β1-β2-β3
Assay: binding FACS, CHO FlpIn cells
Method in brief: (§1)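 Flow cytometry read-out of anti-Flag signal on propidium iodide-negative cells measured ISVD binding. Purified FLAG3-tagged ISVD, diluted in PBS with 10% FBS and NaN₃, was applied to the cells for 30 minutes at 4° C.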

Binder	Bmax	EC50
B1	100%	47 nM
B2	89%	6.2 nM
B3	100%	20 nM
B4	100%	17 nM
B5	94%	7.6 nM
B6	87%	7 nM
B7	100%	9.4 nM
B8	90%	6 nM
B9	100%	7.9 nM
B10	93%	10 nM
B11	100%	6.2 nM
B12	100%	7.3 nM
B13	100%	9 nM

Target: T2, huNav1.7α + β1-β2-β3 (human, UniProt Q15858 1-1988; A5A6L6 19-218; O60939 30-215; Q2KI11 23-215)
T2 construct: Cell line (CHO FlpIn, HEK FlpIn, transient HEK293T) is named under assay; also called huNav1.7-beta1-beta2-beta3; human Nav1.7α with Navβ1, Navβ2 and Navβ3
Assay: binding FACS, CHO FlpIn cells
Method in brief: as §1

Binder	EC50
B14	110 nM
B15	180 nM
B16	120 nM
B17	110 nM
B18	100 nM
B19	93 nM
B20	110 nM
B21	110 nM
B22	310 nM
B23	110 nM
B24	120 nM
B25	200 nM
B26	62 nM
B27	170 nM
B28	130 nM

Target: T3, rhNav1.7α + β1-β2-β3 (rhesus Nav1.7α co-expressed with Navβ1, Navβ2 and Navβ3 on cells) (rhesus monkey (α subunit); β subunits …)
T3 construct: also called rhNav1.7-beta1-beta2-beta3; CHO FlpIn rhNav1.7α + β1-β2-β3
Assay: binding FACS, CHO FlpIn cells
Method in brief: as §1

Binder	Bmax	EC50
B1	50%	48 nM
B2	32%	18 nM
B3	100%	11 nM
B4	100%	20 nM
B5	44%	19 nM
B6	7%	93 nM
B7	100%	10 nM
B8	38%	24 nM
B9	100%	5 nM
B10	23%	200 nM
B11	100%	4.3 nM
B12	100%	4.9 nM
B13	100%	7.3 nM

Target: T4, huNav1.7α+β1 (human, UniProt Q15858 1-1988; Q07699 19-218)
T4 construct: also called huNav1.7-beta1; HEKa/β1
Assay: binding FACS, HEKa/β1 cells
Description: (§2) Binding of the ISVDs to cell-expressed Nav1.7α was detected via murine anti-Flag (Sigma, catalog #F1804). Briefly, cells were resuspended in FACS buffer (PBS, 10% FBS, NaN₃) and transferred to a 96-well V-bottom plate at 1×10^5 cells/well. Purified FLAG3-tagged ISVD was diluted in FACS buffer and added to the cells for 30 minutes at 4° C. […] Prior to the read-out, the samples were resuspended in 1 μg/mL propidium iodide (Sigma, catalog #P4170) to exclude dead cells. Between each step, the cells were centrifuged for 5 minutes at 200 grams and washed with 100 μL/well FACS buffer.

Binder	Bmax relative to '535	EC50
B29	117%	4.4 nM
B30	87%	7.4 nM
B31	99%	5.4 nM
B32	104%	5.1 nM
B33	111%	5.7 nM
B34	99%	5.4 nM
B35	117%	4.7 nM
B36	111%	5.4 nM
B37	112%	9.3 nM
B38	107%	9.7 nM
B39	118%	5.6 nM

Target: T5, huNav1.7α + β1 (HEKa/β1) (human, UniProt Q15858 1-1988; Q07699 19-218)
T5 construct: also called HEKa/β1 huNav1.7α
Assay: binding FACS, HEKa/β1 cells
Description: as §2

Binder	EC50
B14	24 nM
B15	35 nM
B16	30 nM
B17	53 nM
B18	29 nM
B19	43 nM
B20	42 nM
B21	29 nM
B22	110 nM
B23	40 nM
B24	41 nM
B25	67 nM
B26	17 nM
B27	51 nM
B28	36 nM
